B1: HDV Ribozyme (parent)
chain: GGCCGGCAUGGUCCCAGCCUCCUCGCUGGCGCCGGCUGGGCAACAUUCCGAGGGGACCGUCCCCUCGGUAAUGGCGAAUGGGACCCA

Variants of: B1
Assay: self-cleavage, relative activity (ratio to wild type); higher = more cleavage; co-transcriptional

Point of comparison: C14G G55C, self-cleavage 0.665. Against it:
- C33G G82C — lower, 0.0405
- C44A C61G — lower, 0.608
- G2A G68A — lower, 0.185
- A56U C64G — higher, 0.882
- G25U G40A — lower, 0.111
- G6U G35U — lower, 0.143
- U47C A78G — higher, 0.807
- G40C G53U — lower, 0.337
- C49U C75U — lower, 0.13
- C3A G73U — lower, 0.111
- C3A G76U — higher, 0.773
- G6C G81C — lower, 0.185
- G6U G76U — higher, 0.731
- C41G U65A — higher, 0.987
- G68C C84A — higher, 1.06
- G34C G74C — lower, 0.0875
- C3A G81C — lower, 0.0158
- G6U C22G — lower, 0.0489
- C18U C85A — lower, 0.574
- C32A A56G — lower, 0.252
- C19G A42U — lower, 0
- C41A C66U — higher, 0.9
- U9A G73A — lower, 0.425
- C32G U69G — lower, 0.0504
- C14A C85G — higher, 0.906
- A42U C63G — lower, 0.504
- A51G A70U — higher, 1.22
- G17C G55U — lower, 0.208
- A56G G67C — higher, 1.05
- G39A A45C — lower, 0.188
- U47C C61A — higher, 0.872
- G50C C64U — higher, 0.728
- A16U U47A — lower, 0.639
- C14U C66G — higher, 0.884
- U27C G82A — lower, 0.396
- C62G C85G — higher, 0.911
- U12C A42G — lower, 0.0831
- G1A A16C — lower, 0.158
- C15G C36G — lower, 0
- G5U G10A — lower, 0.135
- C30A G74U — lower, 0.223
- A8G U20C — lower, 0.217
- C18G A43C — lower, 0.332
- C4A A83U — lower, 0.0959
- G50C G52U — lower, 0.554
- C22G G53C — lower, 0
- U27G G54U — higher, 0.997
- C30G C58G — lower, 0.0804
- G52U C61A — higher, 1.02
- C48G G76A — higher, 1.12
- C36G G40C — lower, 0.185
- U9A C24U — lower, 0.449
- C33G A56C — lower, 0.113
- C26U A87U — higher, 1
- C41U C62A — higher, 1.02
- C7A C30A — lower, 0.0282
- C24G C58U — lower, 0.117
- C26A U65A — higher, 0.966
- C64G G68U — lower, 0.136
- C36G G80U — lower, 0.0507
- U20G C63U — lower, 0.297
- U65A G73C — lower, 0.415
- C44U G55C — higher, 0.882
- G6U G25A — lower, 0.169
- G5A G67C — lower, 0.162
- U37A A77G — lower, 0.415
- C32G C62U — lower, 0.117
- G28C G35U — lower, 0.0997
- U65C U72G — higher, 0.831
- C44U G76U — higher, 0.847
- G25U C85U — lower, 0.415
- C57G G82C — lower, 0.306
- C49U A77U — lower, 0.297
- G38C A78U — lower, 0.0308
- G54C A56U — higher, 1.06
- C44A A78U — lower, 0.104
- C44G C85A — lower, 0.525
- C4U C18G — lower, 0.095
- C21G G59A — lower, 0.0594
- C36A A45G — lower, 0.256
- C21A G52C — lower, 0.125
- C84U C86U — lower, 0.604
- C15U G74C — lower, 0.185
- U60A U69G — higher, 1.01
- G28C C62U — lower, 0.0369
- C26G G29A — lower, 0.208
- A43U U65C — lower, 0.298
- C41G A77C — lower, 0.222
- G76U U79C — higher, 0.782
- G17A U65G — higher, 0.773
- U37G A83C — lower, 0.0678
- G52U C66A — lower, 0.618
- C32A U46A — lower, 0.185
- C32U G40U — higher, 0.758
- A43G C44A — higher, 0.684
- U9A G73U — lower, 0.244
- C14A C15A — lower, 0.582
- G5A A70C — lower, 0.166
- C21G G53A — lower, 0.0511
- U23C C26U — higher, 1.26
- G31A U46G — lower, 0.0852
- G39C C75A — lower, 0.142
- C14U G53A — higher, 1.11
- G29U G82U — lower, 0.095
- U69G G80U — lower, 0.31
- A45G — higher, 0.918
- U69C G76U — higher, 1.29
- C18G G40A — lower, 0.175
- G10C C48U — higher, 0.911
- C61U C75G — lower, 0.151
- A8G U27A — higher, 0.867
- G25U — lower, 0.177
- G11A A16C — lower, 0.35
- C21U U72G — lower, 0.19
- A77U G80C — lower, 0.136
- C44G U47A — lower, 0.653
- G5C U27C — lower, 0
- C7A C48A — lower, 0.604
- U9C G80A — lower, 0.277
- G11U A87U — lower, 0.199
- C41A G50C — higher, 0.877
- G11U U69A — lower, 0.317
- G55A C86G — higher, 0.818
- A8U G39A — lower, 0.318
- C75A — lower, 0.171
- C4U C15A — lower, 0.302
- C4U G73C — lower, 0.242
- G11C G40A — lower, 0.208
- C3G C18G — lower, 0.0475
- C21U G74C — lower, 0.158
- U12G C48A — higher, 0.831
- G53U A70G — higher, 1.08
- C13A C85G — lower, 0.0396
- C49U G50C — higher, 0.991
- G29U C84G — lower, 0.0277
- U27A G54U — higher, 0.845
- G11C C86G — lower, 0.312
- C62A G67C — higher, 0.78
- C58G U65C — higher, 0.782
- C21A U37A — lower, 0
- U23A G25C — lower, 0.208
- C63G G80C — lower, 0.147
- C15U U20A — lower, 0.0692
- C62A C84G — higher, 0.764
- C19U C32A — lower, 0.0361
- C64U A83U — lower, 0.361
- A8G U72A — lower, 0.554
- G1C A42C — lower, 0.0639
- G50U C62A — lower, 0.602
- U23A U65G — higher, 1.18
- C48U G82U — lower, 0.437
- C15A A83G — lower, 0.284
- U12A C84U — lower, 0.519
- A78C A87G — lower, 0.127
- G17C G53A — lower, 0.281
- G11A C24G — lower, 0.0747
- G38A G80U — lower, 0.156
- U23G U69G — lower, 0.431
- C18G G40U — lower, 0.0489
- G10A A42C — lower, 0.0875
- G40U U69A — lower, 0.623
- G54A U72A — higher, 0.707
- C18G G81C — lower, 0
- C41G G50U — higher, 0.708
- A8U U60C — lower, 0.492
- C36A A56G — lower, 0.145
